# Measurements as given in patent publication US20090028859A1 (published 2009).
# B1: scFv p1C11 (scFv)
# scFv: QVKLQQSGAELVGSGASVKLSCTTSGFNIKDFYMHWVKQRPEQGLEWIGWIDPENGDSDYAPKFQGKATMTADSSSNTAYLQLSSLTSEDTAVYYCNAYYGDYEGYWGQGTTVTVSSGGGGSGGGGSGGGGSDIELTQSPAIMSASPGEKVTITCSASSSVSYMHWFQQKPGTSPKLWIYSTSNLASGVPARFSGSGSGTSYSLTISRMEAEDAATYYCQQRSSYPFTFGSGTKLEIK
# notes: Mouse scFv from a phage library, VH and VL joined by (GGGGS)3, made soluble from pCANTAB 5E with a C-terminal E tag (detected with anti-E tag antibody); It is not known whether the entry includes the tag; also called anti-KDR scFv
# B2: scFv 6.12 (scFv)
# scFv: QVKLQQSGAELVKPGASVKLSCTASGFNIKDTYIHWVKQSPEQGLEWIGWIDPPNDNTKYDPKFQGKATITADTSSNTAYMQLRSLTSEDTAVYYCALPPFYFDYWGHGTTVTVSSGGGGSGGGGSGGGGSDIELTQSPKFMSTSVGDRVSVTCKASQNVDTNVAWYQQKPGQSPKALIYSASYRYSGVPDRFTGSGSGTDFTLTISNVQSEDLAEYFCQQYNSFPYTFGGGTKLEIKRA
# notes: expressed soluble from pCANTAB 5E and detected with anti-E tag antibody; not shown: E tag from vector pCANTAB 5E
# B3: anti-KDR x anti-Flt-1 bifunctional diabody (bispecific antibody, part only; not given: anti-KDR domains, E tag, not shown: small tags and cut ends)
# chain, part 1: GGGGSQVKLQQSGAELVKPGASVKLSCTASGFNIKDTYIHWVKQSPEQGLEWIGWIDPPNDNTKYDPKFQGKATITADTSSNTAYMQLRSLTSEDTAVYYCALPPFYFDYWGHGTTVTVSS
# chain, part 2: DIELTQSPKFMSTSVGDRVSVTCKASQNVDTNVAWYQQKPGQSPKALIYSASYRYSGVPDRFTGSGSGTDFTLTISNVQSEDLAEYFCQQYNSFPYTFGGGTKLEIKRAGGGGS
# Tests used:
# [1] = biological target: T1, KDR-alkaline phosphatase (AP) soluble fusion protein (human, UniProt P35968 20-764); assay: direct binding ELISA on immobilized KDR, detection with anti-E tag antibody-HRP, A450
# T1 construct: also called KDR-AP; soluble KDR; not shown: alkaline phosphatase (AP) fusion partner
# Procedure: (§1) Two assays were carried out to determine the dual antigen binding capability of the diabody. First, a cross-linking assay was used to investigate whether the diabody is capable of binding both of its target antigens simultaneously. Briefly, the diabody or its parent scFv were first incubated in a 96-well Maxi-sorp microtiter plate (Nunc, Roskilde, Denmark) precoated with Flt-1-Fc fusion protein (1 μg/ml×[…] per well overnight at 4° C.) at room temperature (RT) for 1 h. The plate was washed three times with PBS containing 0.1% Tween (PBST), followed by incubation with KDR-AP fusion protein at RT for additional 1 h. The plate-bound KDR-AP was then quantified by the addition of AP substrate, p-nitrophenyl phosphate (Sigma, St. Louis, Mo.), followed by reading of the absorbance at 405 nm (Lu, D. et al., 1999). In the second, direct binding assay, various amounts of diabody or scFv were added to KDR or Flt-1 coated 96-well plates and incubated at RT for 1 h, after which the plates were washed 3 times with PBST. The plates were then incubated at RT for 1 h with 100 μl of an anti-E tag antibody-HRP conjugate (Amersham Pharmacia Biotech). The plates were washed, peroxidase substrate added, and the absorbance at 450 nm read following the procedure described previously (Lu, D. et al., 1999).
# Flt-1-Fc fusion protein [2] = biological target: T2, Flt-1-Fc fusion protein (human, UniProt P17948-2 27-687, limits assumed); assay: BIAcore SPR, Flt-1-Fc immobilized, antibody injected
# T2 construct: Bought from R&D Systems; also called VEGFR-1; not shown: Fc part
# Procedure: The binding kinetics of the diabody and its parent scFv to KDR and Flt-1 were measured using a BIAcore biosensor (Pharmacia Biosensor). KDR-AP or Flt-1-Fc fusion protein was immobilized onto a sensor chip and soluble antibodies were injected at concentrations ranging from 1.5 nM to 100 nM. Sensorgrams were obtained at each concentration and were analyzed with, BIA Evaluation 2.0, a program to determine the rate constants kon and koff. The affinity constant, Kd, was calculated from the ratio of rate constants koff/kon.
# Flt-1-Fc fusion protein [3] = biological target: T2, Flt-1-Fc fusion protein; assay: direct binding ELISA on immobilized Flt-1, detection with anti-E tag antibody-HRP, A450
# Procedure: as §1
# Flt-1-Fc fusion protein [4] = biological target: T2, Flt-1-Fc fusion protein; assay: blocking ELISA: antibody mixed with a fixed amount of Flt-1-Fc, transferred to immobilized PlGF, plate-bound Flt-1-Fc detected with anti-human Fc-HRP, A450
# Procedure: The assays followed previously described protocols (Zhu, Z. et al., 1998; Lu, D. et al., 1999). Briefly, various amounts of the diabody or scFv were mixed with a fixed amount of KDR-AP (100 ng) or Flt-1-Fc fusion protein (50 ng) and incubated at RT for 1 h. The mixture were then transferred to 96-well microtiter plates precoated with VEGF₁₆₅ (200 ng/well) or PlGF (200 ng/well) and incubated at RT for an additional 2 h, after which the plates were washed 5 times with PBS. For the KDR-AP assay, the substrate for AP was added, followed by reading of the absorbance at 405 nm to quantify the plate-bound KDR-AP. For the Flt-1-Fc assay, the plate was incubated with a mouse anti-human Fc-HRP conjugate to quantify the plate-bound Flt-1-Fc.
# Flt-1-Fc fusion protein [5] = biological target: T2, Flt-1-Fc fusion protein; assay: competition ELISA: inhibition of Flt-1-Fc binding to immobilized VEGF165, reference scFv 6.12
# T2 sequence (P17948 other isoform, or with tags, fused parts or gaps limits assumed): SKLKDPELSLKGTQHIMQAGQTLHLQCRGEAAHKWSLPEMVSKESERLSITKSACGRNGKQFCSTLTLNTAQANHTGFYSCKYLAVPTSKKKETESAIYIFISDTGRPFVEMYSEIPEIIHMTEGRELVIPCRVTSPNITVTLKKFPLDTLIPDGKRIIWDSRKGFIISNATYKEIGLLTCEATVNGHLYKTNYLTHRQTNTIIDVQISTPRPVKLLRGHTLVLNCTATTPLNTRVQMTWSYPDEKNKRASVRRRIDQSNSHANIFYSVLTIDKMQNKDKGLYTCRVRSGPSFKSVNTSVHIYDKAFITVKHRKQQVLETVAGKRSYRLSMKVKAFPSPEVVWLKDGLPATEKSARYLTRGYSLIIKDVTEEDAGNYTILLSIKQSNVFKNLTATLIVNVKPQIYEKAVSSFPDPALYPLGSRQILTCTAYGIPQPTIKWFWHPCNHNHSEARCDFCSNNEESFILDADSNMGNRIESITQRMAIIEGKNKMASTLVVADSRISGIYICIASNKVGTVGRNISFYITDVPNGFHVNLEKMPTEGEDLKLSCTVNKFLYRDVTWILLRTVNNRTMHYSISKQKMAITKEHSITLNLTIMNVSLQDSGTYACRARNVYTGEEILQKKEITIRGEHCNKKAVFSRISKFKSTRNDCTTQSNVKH
# T1 sequence (P35968 20-764): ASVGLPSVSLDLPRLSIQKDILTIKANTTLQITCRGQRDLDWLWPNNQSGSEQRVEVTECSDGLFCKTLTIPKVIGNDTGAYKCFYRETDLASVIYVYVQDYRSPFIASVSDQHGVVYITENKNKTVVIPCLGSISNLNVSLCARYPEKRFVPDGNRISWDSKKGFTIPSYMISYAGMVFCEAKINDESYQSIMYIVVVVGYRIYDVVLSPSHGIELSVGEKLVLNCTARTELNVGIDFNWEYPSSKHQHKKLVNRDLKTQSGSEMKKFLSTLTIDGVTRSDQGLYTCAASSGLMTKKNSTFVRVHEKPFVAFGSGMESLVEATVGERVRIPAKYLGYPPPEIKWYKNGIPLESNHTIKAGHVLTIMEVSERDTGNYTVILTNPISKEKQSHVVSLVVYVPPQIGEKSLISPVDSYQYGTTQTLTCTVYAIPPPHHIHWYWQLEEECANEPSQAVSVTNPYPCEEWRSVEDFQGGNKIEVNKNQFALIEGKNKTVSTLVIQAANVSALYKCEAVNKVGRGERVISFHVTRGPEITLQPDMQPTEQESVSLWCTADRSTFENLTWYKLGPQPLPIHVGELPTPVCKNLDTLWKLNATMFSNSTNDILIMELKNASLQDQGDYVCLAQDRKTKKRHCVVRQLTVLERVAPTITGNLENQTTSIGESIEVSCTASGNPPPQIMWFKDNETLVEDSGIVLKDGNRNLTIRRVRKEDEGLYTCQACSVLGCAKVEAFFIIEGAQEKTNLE
binder,measurement,setting,value
B1,EC50 (read off the curve),[1],~0.3 nM
B2,Kd,Flt-1-Fc fusion protein [2],9.8 nM
same,koff,Flt-1-Fc fusion protein [2],0.00236 s⁻¹
same,kon,Flt-1-Fc fusion protein [2],241000 M⁻¹ s⁻¹
same,binding result,[1],no binding (tested: about 12 nM)
same,EC50 (read off the curve),Flt-1-Fc fusion protein [3],~0.6 nM
same,IC50 (read off the curve),Flt-1-Fc fusion protein [4],~1 nM
B3,fold less potent than the parent scFv 6.12,Flt-1-Fc fusion protein [5],10 fold
